Molecular target: T1, mouse ADAMTS7 (Mus musculus, UniProt Q68SA9, E373Q)
T1 construct: Full-length mouse Adamts7 1-1857 (Uniprot Q68SA9, WT or E373Q catalytic mutant); expressed in transfected cells; host or cells: Human Coronary Artery Smooth Muscle Cells (HCA-SMC, Lonza), adenovirus 50 MOI
T1 sequence (Q68SA9 221-1657 E373Q): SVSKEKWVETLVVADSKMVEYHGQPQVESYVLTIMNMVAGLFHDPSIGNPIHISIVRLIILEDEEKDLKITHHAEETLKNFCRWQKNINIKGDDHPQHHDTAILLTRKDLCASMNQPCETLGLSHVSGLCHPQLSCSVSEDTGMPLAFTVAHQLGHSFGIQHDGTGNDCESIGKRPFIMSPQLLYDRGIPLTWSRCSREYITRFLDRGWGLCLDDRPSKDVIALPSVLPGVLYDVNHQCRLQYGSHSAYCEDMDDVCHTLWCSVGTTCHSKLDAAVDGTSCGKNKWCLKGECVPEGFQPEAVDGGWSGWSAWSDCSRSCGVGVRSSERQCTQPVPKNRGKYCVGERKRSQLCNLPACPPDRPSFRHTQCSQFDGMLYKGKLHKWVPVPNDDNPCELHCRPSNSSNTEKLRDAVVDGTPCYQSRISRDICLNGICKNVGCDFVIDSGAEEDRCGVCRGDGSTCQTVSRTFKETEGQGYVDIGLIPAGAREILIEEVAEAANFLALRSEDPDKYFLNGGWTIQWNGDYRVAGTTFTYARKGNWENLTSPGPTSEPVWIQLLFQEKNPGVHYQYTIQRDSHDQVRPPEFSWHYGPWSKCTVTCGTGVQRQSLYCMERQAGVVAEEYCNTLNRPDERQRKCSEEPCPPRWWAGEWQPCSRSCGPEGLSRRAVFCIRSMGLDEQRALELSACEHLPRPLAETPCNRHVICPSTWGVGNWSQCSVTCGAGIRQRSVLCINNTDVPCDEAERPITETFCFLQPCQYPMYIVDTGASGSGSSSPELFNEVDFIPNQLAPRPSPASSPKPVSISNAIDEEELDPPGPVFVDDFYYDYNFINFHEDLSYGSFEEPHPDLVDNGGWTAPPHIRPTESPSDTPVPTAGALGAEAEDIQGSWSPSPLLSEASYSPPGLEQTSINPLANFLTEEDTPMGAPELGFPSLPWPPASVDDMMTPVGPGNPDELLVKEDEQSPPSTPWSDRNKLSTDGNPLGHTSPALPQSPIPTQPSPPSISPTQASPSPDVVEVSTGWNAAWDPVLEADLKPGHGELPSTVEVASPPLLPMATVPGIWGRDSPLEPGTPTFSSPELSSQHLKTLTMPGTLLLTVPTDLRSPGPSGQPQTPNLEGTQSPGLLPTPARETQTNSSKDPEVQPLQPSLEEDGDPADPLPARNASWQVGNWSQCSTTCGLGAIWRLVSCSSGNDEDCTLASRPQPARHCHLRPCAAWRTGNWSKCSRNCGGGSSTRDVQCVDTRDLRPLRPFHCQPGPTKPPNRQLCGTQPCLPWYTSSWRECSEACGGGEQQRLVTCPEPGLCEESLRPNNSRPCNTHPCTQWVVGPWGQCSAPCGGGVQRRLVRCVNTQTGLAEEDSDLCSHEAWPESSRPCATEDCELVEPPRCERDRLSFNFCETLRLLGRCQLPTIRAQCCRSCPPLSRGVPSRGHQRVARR
Assay: TMT10 TAILS N-terminomics, HUVEC experiment (process replicates, trypsin/AspN digest)
Type: cell-based, human
Details: HUVEC TAILS HC; log fold change of N-terminal peptide, Ad-mADAMTS7 EQ over Luc
Text: ADAMTS7 Expression, Cell Culture and Preparation of the Secreted Proteins—Full-length mouse Adamts7 1-1857 (Uniprot Q68SA9, WT or E373Q catalytic mutant) with a carboxyl terminal 3xFLAG tag was used to generate custom adenoviruses as previously described. Adeno-CMV-Luciferase (Ad-Luc) from Vector Biolabs was used as a negative control. Human Coronary Artery Smooth Muscle Cells (HCA-SMC) were obtained from Lonza and expanded in Lonza SmGM-2 media in 15 cm tissue culture plates. Twenty-four hours before media collection, near confluent plates were transduced with 50 MOI adenovirus and switched to Lonza Basal SM media with volumes of 20 ml per 15 cm plate. Expression of the Flag tagged ADAMTS7 was confirmed from the media using western blot and detected using the anti-Flag M2-HRP antibody (Sigma, A8592). Collected media was processed by adding protease inhibitors (1 mM EDTA and 1 mM PMSF) and clarified by 500 g×5 min spin at 4 C to pellet cell debris. Cell media supernatants were then passed through a 0.22 um filter and kept chilled. Processed media was then concentrated 50-100× using 3 kDa Centricon Plus-70 filter unit, spun at 3,500 g×60 min at 4 C. Approximately 10% of the processed, concentrated media was set aside for total secretome proteolytic analysis. The remaining 90% of the processed, concentrated media was buffer exchanged into 50 mM HEPES pH 8.0, 150 mM NaCl (2×50 ml) using the 3 kDa Centricon Plus-70 filter unit and concentrated to >2 mg/ml to serve as input for the TAILS experiment. Secretome and TAILS input samples were stored at −80° C.
For the first experiment, referred to as SMC1, 120 ml of media from 6×15 cm dishes was pooled from each condition (Luc, WT, EQ) and processed to produce three separate inputs for the TAILS experiment. Luc, WT and EQ inputs from the SMC1 experiment were each divided into triplicate 400 ug samples to generate technical replicate TAILS data. For the second experiment, referred to as SMC2, media was processed separately in triplicate for each condition (Luc1, Luc2, Luc3, WT1, WT2, WT3, EQ1, EQ2, EQ3) using 60 ml of media from 3×15 cm dishes for each process replicate. Inputs from the SMC2 experiment used process replicates of 300 ug each to generate TAILS data. The third experiment used input from cultured Human umbilical vein endothelial cells (HUVEC) from Lifeline Cell Technology grown in VascuLife Media and transduced in Lifeline Basal EC (+bFGF2 10 ng/ml). The HUVEC experiment used the same strategy as the SMC2 experiment, with 40 ml of media from 2×15 cm dishes for each process replicate and used 200 ug each to generate TAILS data. Inputs for process replicate experiments were restricted to the lowest concentration from the 9 parallel samples for SMC2 or HUVEC.
TMT10 isotopic labeling and negative selection of non-labeled peptides-Sample preparation was performed based on the TAILS protocol from the Overall lab with some modifications. From a single experiment, nine parallel protein samples in 50 mM HEPES pH 8.0, 150 mM NaCl were separately denatured with guanidinium chloride (Sigma, G4505) to reach a final concentration of 2.5M guanidinium chloride and 250 mM HEPES and incubated at 65° C. for 15 min. Reduction was achieved through addition of tris(2-carboxylethyl) phosphine (TCEP) at a final concentration of […] and incubated at 65° C. for 45 min. Alkylation reaction was performed with addition of iodoacetamide (IAA, Sigma, A3221) to a final concentration of 10 mM IAA for 15 min at room temperature in the dark. Following denaturation, reduction and alkylation steps, ten percent of each of the nine parallel protein samples was removed and combined to serve as a pooled reference. Isobaric tags were added to free amine groups using the TMT10plex Isobaric Mass Tagging Kit (ThermoFisher, 90113) with TMT channels randomly assigned to the nine samples and TMT 131 assigned to the pooled reference. […]

logFC.mEQ.over.Luc | Substance
−0.43 | FN1_886 (NQESTPVVIQQETTGTPR; listed as Homo sapiens)
−0.24 | FN1_1143 (LTPGVEYVYTIQVLR; listed as Homo sapiens)
−0.08 | FN1_1656 (SSSPVTGYR; listed as Homo sapiens)
−0.04 | IGFBP7_101 (AAGGPGVSGVCVCKSR; listed as Homo sapiens)
−0.65 | LOXL2_37 (FQQPAPEYHQPQAPANVAKIQLR; listed as Homo sapiens)
−0.18 | LTBP1_393 (LTATNFR; listed as Homo sapiens)

The remaining lines, values behind:

Substance | logFC.mEQ.over.Luc
AEBP1_37 (FLEGFLSELEPEPR; listed as Homo sapiens) | −0.58
EFEMP1_124 (AVAGPEMQTGR; listed as Homo sapiens) | −0.38
FBN1_29 (LEAGNVKETR; listed as Homo sapiens) | −0.34
FLNA_1285 (LTQTGGPHVKAR; listed as Homo sapiens) | −0.52
FN1_36 (MVQPQSPVAVSQSKPGCYDNGKHYQINQQWER; listed as Homo sapiens) | −0.47
FN1_40 (QSPVAVSQSKPGCYDNGKHYQINQQWER; listed as Homo sapiens) | −0.50
HSPG2_2331 (ANLAYPAGSTQPIR; listed as Homo sapiens) | −0.01
LOX_124 (WFQAGYSTSR; listed as Homo sapiens) | 0.03

Reference: patent US20240368668A1, “SUBSTRATES AND BIOMARKERS OF ADAMTS7” (The Broad Institute, Inc., priority 2021, published 2024)
